The record followed here is patent US20030113774A1.

Assay [1] concerns the target pGal4-AD-p53-1 (p53 clone 1 from the mouse embryonic cDNA library, fused to Gal4-AD) (mouse) (UniProt P02340). Kind of assay: yeast two-hybrid, quantitative liquid β-galactosidase assay.
In assay [2] the target is pGal4-AD-p53-2 (p53 clone 2 from the mouse embryonic cDNA library, fused to Gal4-AD) (mouse) (UniProt P02340). Described as above.
For assay [3], the target named is pGal4-AD-SV40 (control plasmid, SV40 protein fused to Gal4-AD) (UniProt P03070). In words: yeast two-hybrid, quantitative liquid β-galactosidase assay (positive control pair).
Chain of UniProt P03070 (P03070 84-708): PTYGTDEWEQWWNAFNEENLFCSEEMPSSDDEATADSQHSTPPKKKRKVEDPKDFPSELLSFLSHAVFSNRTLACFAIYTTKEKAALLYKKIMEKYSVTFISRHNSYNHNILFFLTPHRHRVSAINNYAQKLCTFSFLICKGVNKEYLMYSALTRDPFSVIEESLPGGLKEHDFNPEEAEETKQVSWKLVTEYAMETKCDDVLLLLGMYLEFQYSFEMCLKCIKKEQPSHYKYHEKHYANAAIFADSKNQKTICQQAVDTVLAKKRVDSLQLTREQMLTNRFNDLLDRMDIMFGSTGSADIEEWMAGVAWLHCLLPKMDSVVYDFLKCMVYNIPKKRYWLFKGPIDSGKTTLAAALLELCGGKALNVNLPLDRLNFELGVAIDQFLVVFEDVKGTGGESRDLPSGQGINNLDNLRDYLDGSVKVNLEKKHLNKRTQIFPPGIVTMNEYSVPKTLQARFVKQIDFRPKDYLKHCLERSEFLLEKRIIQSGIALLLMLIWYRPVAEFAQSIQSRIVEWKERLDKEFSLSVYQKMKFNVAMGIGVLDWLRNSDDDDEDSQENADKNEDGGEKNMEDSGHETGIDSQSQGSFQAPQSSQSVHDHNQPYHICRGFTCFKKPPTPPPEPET

Turning to “pGal4-BD-p40 bait fusion protein comprised of the Gal4 binding domain and a p40 protein (from UniProt P04386 1-147)”, the β-galactosidase in assay [1] was found to be 33.6 nmol/min/mg; in assay [2], 31.8 nmol/min/mg.

“pGal4-BD-p53 (control plasmid, p53 fused to the Gal4 binding domain) (from UniProt P04386 1-147)” had a β-galactosidase in assay [3] of 65.3 nmol/min/mg.
